Measurements taken from US12139531B2, “Compositions and methods useful in promoting milk production” (The Regents of the University of California, priority 2019, dated 2024).
“Also recorded” adds a separate entry of the source.

Key:
[1] = Western blot of TCA-precipitated media for intact ROBO1-Ig5; format: physicochemical; conditions: after 6 days in media, absence and presence of heparin (300 ng/ml)
Text: Three recombinant ROBO1 ECD constructs were constructed: one comprising two immunoglobulin (Ig) domains (ROBO1-Ig2), another comprising all five Ig domains (ROBO1-Ig5), and another comprising the entire extracellular domain (ROBO1-Ecto) (FIG. 6A). In other constructs, HA (hemagglutinin), Myc, and human and mouse immunoglobulin Fc were fused to the Robo1 ECDs (FIG. 6A, 5F right). Extracellular domains of Deleted in Colorectal Cancer (DCC), a structurally similar Ig superfamily member to ROBO1, comprising either two Ig (DCC-Ig2) or four Ig (DCC-Ig4) domains and tagged with HA were constructed for use as negative controls (FIG. 6A, 5F right). Expression secretion of the constructs was confirmed by overexpressing the constructs in HEK293 cells and performing Western blots on cell lysates and media (FIG. 6B). […] Robo1-Ig5 as used herein was expressed in HEK-293 cells in the absence and presence of heparin (300 ng/ml). Media were collected from these ROBO1-Ig5 overexpressing cells on days two, four and six following plasmid transfection. Dot blot dilution assays of the collected media were performed to evaluate the relative secretion of this soluble ROBO1 ECD (FIG. 6C).
Add 1 volume of TCA stock to 4 volumes of protein sample. Incubate 10 min at 4° C. Spin tube in microcentrifuge at 14K rpm, 5 min. Remove supernatant, leaving protein pellet intact Wash pellet with 200 μl cold acetone. […]

HC11 cells = assay: Western blot analysis of WAP and PLIN2 in HC11 cells; format: cell-based, mouse; conditions: ECD titration
Experimental: To determine whether the promotion of dome formation also results in higher milk production, HC11 cells were differentiated in the presence or absence of ROBO1-ECD fragments that were added to cells simultaneously with DIP media. Cells were harvested and the expression of WAP and Lalba assessed by RT-qPCR. […] WAP expression levels were not increased in cells treated with DCC-Ig4 (FIG. 7K). Next, Western blot analysis of WAP and PLIN2 was performed on cells treated with ROBO1-Ig5 and ROBO1-Ecto.
Protein lysates were prepared by directly lysing adherent cells in 1× sample buffer supplemented with 5% beta-mercaptoethanol and boiled for 5 minutes. Protein lysate was resolved by SDS-PAGE and transferred to a PVDF for 90 minutes at 400 mA or overnight at 30 mA. Primary antibodies were used at the concentration indicated in Table 1 and incubated overnight at 4° C. HRP conjugated secondary antibodies (Jackson Labs) were used at 1:3000 and incubated for 45 minutes at room temp. All proteins were detected using Clarity ECL (BioRad) using a BioRad Chemi-Doc MP Imager and quantified using ImageLab software as previously described a.

[2] = system: bovine alveolar progenitor cells (AVPs); assay: Organoid growth of FACS-purified bovine alveolar progenitor cells in Matrigel; format: cell-based; conditions: single cells in Matrigel, 10 days, vs untreated controls
Experimental: The influence of ROBO1 ECD fragments in vitro on primary alveolar progenitor cell growth and in vivo on branching morphogenesis was tested. FACS-purified murine and bovine alveolar progenitor cells (AVPs) were plated as single cells in Matrigel and grown for 10 days in the absence and presence of ROBO1-ECDs fragments (FIGS. 9A, B). […] ROBO1-Ig5 fragments were also tested in vivo by subcutaneously injecting them (7.5 mammary gland/kg/day) into ovariectomized animals that were orally administered hormones in Nutella: estrogen (E, 1 μg/day), progesterone (P, 1 mg/day mammary gland/day) and prolactin (Prl, 0.2 mg/day mammary gland/day) (FIG. 9C). The mammary glands were harvested after 14 days of ROBO1-Ig5 fragment treatment, carmine stained and evaluated. […] Other aspects can involve ROBO1-ECD constructs that are tagged with the murine-Fc sequence. This tag is recognized by an endogenous receptor that facilitates transport into tissues 4.
FACS purified AVPs were cultured in Matrigel (BD Bioscience) at a density of 5000 cell/100 uL and cultured in basal medium; DMEM: F12 phenol-free, 10 mM HEPES, N2 (Gibco), B27 (Gibco) supplemented with 100 ng/mL Neuregulin (R&D), 42.5 ng/mL R-Spondin1 (Peprotech) […]. […]

Notch signaling = assay: RT-qPCR of Notch effector expression (Hey1, Hes1) in HC11 cells; format: cell-based, mouse; conditions: HC11 cells treated with ROBO1-ECD fragments
Experimental: To examine the effects of ROBO1-ECD fragments on Notch signaling, HC11 cells were treated with ROBO1-ECD fragments and Notch effector expression assessed. […] In addition, HC11 cells were treated with ROBO-Ig5 during differentiation. These cells were then fractionated and a Western blot performed to detect HES1 and NOTCH4-ICD (FIG. 8B).
Total RNA was harvested from cells lysed in TRIzol reagent (Invitrogen) and phase separated according to manufacturer's protocol with an additional overnight RNA precipitation stem in ethanol (Macias et al., 2011). The RNA was further purified with TURBO DNase (Ambion) treatment. Total RNA quality was analyzed by agarose gel electrophoresis and quantified with an ND-1000 spectrophotometer (NanoDrop). cDNA libraries were prepared from 1 μg of total RNA using iScript cDNA synthesis kit (BioRad). Quantitative RT-PCR was performed in triplicates using light Cycler 480 SYBR Green I Master (Roche) and quantified using BioRad CFX'Connect Real-Time System and CFX Manager software (BioRad). Results were normalized to GAPDH.

B1: ROBO1-Ig5: recombinant soluble ROBO1 ECD construct comprising all five Ig domains (protein)
chain: SRLRQEDFPPRIVEHPSDLIVSKGEPATLNCKAEGRPTPTIEWYKGGERVETDKDDPRSHRMLLPSGSLFFLRIVHGRKSRPDEGVYICVARNYLGEAVSHNASLEVAILRDDFRQNPSDVMVAVGEPAVMECQPPRGHPEPTISWKKDGSPLDDKDERITIRGGKLMITYTRKSDAGKYVCVGTNMVGERESEVAELTVLERPSFVKRPSNLAVTVDDSAEFKCEARGDPVPTVRWRKDDGELPKSRYEIRDDHTLKIRKVTAGDMGSYTCVAENMVGKAEASATLTVQEPPHFVVKPRDQVVALGRTVTFQCEATGNPQPAIFWRREGSQNLLFSYQPPQSSSRFSVSQTGDLTVTNVQRSDVGYYICQTLNVAGSIITKAYLEVTDVIADRPPPVIRQGPVNQTVAVDGTLTLSCVATGSPVPTILWRKDGVLVSTQDSRIKQLESGVLQIRYAKLGDTGRYTCTASTPSGEATWSAYIEVQEF
[1]
  integrity of ROBO1-Ig5 protein in media: intact; also recorded: no protein degradation
HC11 cells
  PLIN2 protein expression: approximately two-fold; also recorded: increased
  WAP protein expression: approximately two-fold; also recorded: increased
[2]
  size of bovine organoids: larger bovine organoids; also recorded: increased the size
Notch signaling
  Hes1 expression: lower expression; also recorded: decreased
  Hey1 expression: lower expression; also recorded: decreased
